1 protein from article PMC4902875 (ACS chemical biology, 2016) can be followed below.

This series concerns the molecule itself. Nature of the series: crystal structure.

B1: BexE (enzyme, Amycolotopsis orientalis sp. vinerea, UniProt D7RFJ3 1-487, looked up)
chain: MDAPVVIAGAGPAGLMLAGELRLAGIGVVVLERLPARTGESRGLGFTARTMEVFDQRGLLRRFGEVQTSDQGHFGGIPVDFGLLDGAHQAAKTIPQSATEAVLEAWAGELGADIRRGHELTGVRDDGDGVAVTVRGPAGEHVLRAGWLVGCDGGRSAVRKAVGFDFPGTAATREMFLADLRGVELEPRMIGESLPGGMVMVGPLPGGVTRIIVCERDAPPRRRTGPPPFHEVADAWKRITGIDISAAEPVWLSAFGDATRQVTEYRRGRVLLAGDAAHVHLPAGGQGMNAGIQDAVNLGWKLAAVVRGTARADLLDTYHGERHPVGVRLLMNTRAQGLLFLNGAEMQPLRDVLAELTGYPDVARHLAAMVSGLEIAYDVGGGSHPWLGRRLPRLELDRGGRPSSTAELLRPARGLLLDFAGNAALRDRAAPWAGRIDVVTARPAAGRVPGATTAVLVRPDGHVAWAAPGTHADLPMALERWFGPAPR
In the case of B1, the binding result is given as “binds”.
